{
  "source": "patent US20100196403A1",
  "about": "“ANTIBODY CONJUGATES FOR CIRCUMVENTING MULTI-DRUG RESISTANCE” (priority 2007, published 2010)",
  "key": {"[1]": {"tested_on": "HU-2 cells", "assay": "Cell viability of HU-2 cells with toxic drugs (Trypan blue exclusion)", "assay_type": "cell-based, mouse", "settings": "2 μg/ml Adriamycin or 1 μg/ml colchicine, FIG. 6A", "method": "T-25 cells (Hochman et al, 1984), derived from S49 mouse lymphoma, were transduced with a retrovirus containing the human MDR1 cDNA, as previously described (Galski et al. 1995). The resultant cells (HU-2) are cross-resistant to colchicine, doxorubicin, vinblastine and actinomycin D, and their resistance to colchicine is reversed by verapamil. T-cell lymphoma derived cell lines were grown in Dulbecco's modified eagle medium (DMEM) supplemented with 10% heat-inactivated horse serum, at 37° C. in a humidified atmosphere containing 5% CO2.\nTo measure the sensitivity of HU-2 cells to toxic drugs, 1×10^5 cells per well were incubated with 10 μg of the conjugate for 4 hrs. 2 μg/ml of Adriamycin or 1 μg/ml of colchicine was then added and the cells incubated for a further 96 hrs. Stocks were prepared in DMSO. The maximal final concentration of DMSO in the assays was 0.5% (v/v). After 96 h, the cells were checked by light microscopy and viable cells were counted by Trypan blue exclusion."}, "[2]": {"target": "human MDR1 (P-gp) expressed in HU-2 mouse lymphoma cells (human) (UniProt P08183)", "sequence (P08183 whole entry)": "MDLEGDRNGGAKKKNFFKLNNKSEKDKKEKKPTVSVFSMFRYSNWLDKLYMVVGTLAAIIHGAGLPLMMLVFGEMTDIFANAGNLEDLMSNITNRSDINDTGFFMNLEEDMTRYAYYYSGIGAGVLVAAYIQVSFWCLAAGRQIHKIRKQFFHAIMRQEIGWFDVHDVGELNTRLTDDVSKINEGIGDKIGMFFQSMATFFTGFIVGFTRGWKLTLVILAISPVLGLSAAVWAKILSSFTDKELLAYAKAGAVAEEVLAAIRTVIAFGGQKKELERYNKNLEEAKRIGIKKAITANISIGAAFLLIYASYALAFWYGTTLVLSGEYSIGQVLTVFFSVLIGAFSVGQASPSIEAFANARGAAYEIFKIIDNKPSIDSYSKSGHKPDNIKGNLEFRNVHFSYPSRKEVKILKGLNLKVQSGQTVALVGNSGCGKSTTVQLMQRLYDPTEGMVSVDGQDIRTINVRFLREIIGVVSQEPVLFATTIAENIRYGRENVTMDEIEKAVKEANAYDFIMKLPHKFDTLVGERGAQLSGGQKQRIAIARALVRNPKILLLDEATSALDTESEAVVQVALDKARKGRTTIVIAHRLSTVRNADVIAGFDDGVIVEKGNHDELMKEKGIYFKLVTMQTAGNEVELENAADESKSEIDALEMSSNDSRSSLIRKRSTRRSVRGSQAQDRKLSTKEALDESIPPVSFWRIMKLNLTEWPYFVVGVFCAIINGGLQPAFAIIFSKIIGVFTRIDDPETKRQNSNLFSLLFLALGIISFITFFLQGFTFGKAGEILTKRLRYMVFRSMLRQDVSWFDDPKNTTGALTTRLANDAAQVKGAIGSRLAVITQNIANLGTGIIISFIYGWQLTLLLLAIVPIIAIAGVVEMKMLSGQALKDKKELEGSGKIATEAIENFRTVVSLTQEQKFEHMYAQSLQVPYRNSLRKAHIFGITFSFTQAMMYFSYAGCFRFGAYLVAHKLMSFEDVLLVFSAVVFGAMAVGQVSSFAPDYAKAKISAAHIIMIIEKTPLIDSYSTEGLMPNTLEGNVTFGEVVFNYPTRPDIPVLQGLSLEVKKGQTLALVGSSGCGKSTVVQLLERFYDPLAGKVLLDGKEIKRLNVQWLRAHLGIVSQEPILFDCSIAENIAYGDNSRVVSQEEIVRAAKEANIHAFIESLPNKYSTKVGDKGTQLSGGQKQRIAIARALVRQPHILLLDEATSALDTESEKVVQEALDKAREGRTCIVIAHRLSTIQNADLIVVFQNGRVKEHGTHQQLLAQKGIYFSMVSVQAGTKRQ", "assay": "cell-based or functional assay"}, "[3]": {"target": "T1, ABCB1 transporter (Cricetulus griseus, UniProt P21448)", "T1 construct": "In drug resistant cells, calcein-AM is extruded by the ABCB1 transporter; endogenous in cells; host or cells: CHO cell clone CH(R)B30 (colchicine-resistant)", "T1 sequence (P21448 whole entry)": "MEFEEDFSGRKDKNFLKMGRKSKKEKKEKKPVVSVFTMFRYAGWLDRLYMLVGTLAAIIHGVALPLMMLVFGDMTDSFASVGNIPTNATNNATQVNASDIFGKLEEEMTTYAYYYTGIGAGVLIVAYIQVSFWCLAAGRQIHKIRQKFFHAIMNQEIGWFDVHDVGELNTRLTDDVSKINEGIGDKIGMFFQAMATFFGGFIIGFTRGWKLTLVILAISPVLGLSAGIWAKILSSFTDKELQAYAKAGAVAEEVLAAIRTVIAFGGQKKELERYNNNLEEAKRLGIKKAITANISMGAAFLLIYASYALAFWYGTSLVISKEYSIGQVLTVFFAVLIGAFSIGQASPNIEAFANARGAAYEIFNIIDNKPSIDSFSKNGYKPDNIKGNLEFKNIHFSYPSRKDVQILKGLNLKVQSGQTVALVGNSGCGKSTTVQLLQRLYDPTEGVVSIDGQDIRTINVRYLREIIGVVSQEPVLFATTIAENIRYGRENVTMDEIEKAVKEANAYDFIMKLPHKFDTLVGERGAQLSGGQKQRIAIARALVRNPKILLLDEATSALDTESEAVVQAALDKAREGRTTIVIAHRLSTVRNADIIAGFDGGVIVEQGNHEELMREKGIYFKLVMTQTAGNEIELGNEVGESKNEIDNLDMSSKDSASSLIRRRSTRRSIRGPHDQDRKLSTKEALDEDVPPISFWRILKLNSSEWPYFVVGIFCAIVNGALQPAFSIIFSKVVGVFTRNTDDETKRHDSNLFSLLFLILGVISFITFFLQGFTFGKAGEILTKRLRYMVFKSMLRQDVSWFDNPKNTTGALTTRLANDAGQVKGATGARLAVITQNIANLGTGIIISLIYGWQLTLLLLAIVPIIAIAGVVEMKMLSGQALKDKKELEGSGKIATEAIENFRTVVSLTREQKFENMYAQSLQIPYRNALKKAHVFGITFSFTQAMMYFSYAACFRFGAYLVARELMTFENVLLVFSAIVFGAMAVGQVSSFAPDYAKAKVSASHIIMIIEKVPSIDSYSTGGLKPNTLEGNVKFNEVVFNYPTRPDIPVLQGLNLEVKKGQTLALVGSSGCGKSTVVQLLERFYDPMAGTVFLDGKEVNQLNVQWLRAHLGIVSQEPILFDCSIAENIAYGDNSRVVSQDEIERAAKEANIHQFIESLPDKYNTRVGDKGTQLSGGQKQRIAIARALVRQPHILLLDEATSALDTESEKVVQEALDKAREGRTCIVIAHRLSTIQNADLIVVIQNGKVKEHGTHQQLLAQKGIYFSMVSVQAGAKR", "assay_type": "cell-based, Chinese hamster", "procedure": "Cells were grown in alpha-MEM medium supplemented with 10% Fetal Calf Serum (FCS), penicillin 50 U/ml, streptomycin 50 μg/ml, and ceftazidim 50 μg/ml. For propagation of the clone, colchicine was added to this medium to a final concentration of 20 μg/ml.\nCells were diluted in alpha MEM to about 1.5×10^6 cells/ml. Volumes of 1 ml were distributed to 2 ml Eppendorf tubes. […] The capped tubes were positioned with their longitudinal axes inclined to 45° on a roller platform and were rotated in the incubator. The cells were incubated with conjugates, proteins, or peptides, respectively, at various concentrations and for various times. […] Calcein-AM was added to a final concentration of 1 μM or 2 μM at least 30 min before the end of incubation. Calcein-AM, a substrate of ABCB1, is a hydrophobic non-fluorescent substance that easily enters cells. Once in the cytoplasm, calcein-AM is hydrolysed, and the ensuing fluorescent calcein is retained within the cells. In drug resistant cells, calcein-AM is extruded by the ABCB1 transporter. […] All vials were stopped by addition of ice-cold medium and then put on ice for subsequent flow cytometry (beginning about 1 h after the end of incubation). […] 100,000 cells, in a few experiments 50,000 cells per vial were counted. […] The median channel xM of the y distribution and yM, the number of cells in xM, were determined."}},
  "data": [
    {"compound": "COc1cccc2c1C(=O)c1c(O)c3c(c(O)c1C2=O)C[C@@](O)(C(=O)CO)C[C@@H]3O[C@H]1C[C@H](N)[C@H](O)[C@H](C)O1", "note": "[adriamycin, doxorubicin]", "values": [
      {"measurement": "viability of HU-2 cells with drug, no conjugate", "setting": "[1]", "result": "remain viable"}
    ]},
    {"compound": "COc1cc2c(c(OC)c1OC)-c1ccc(OC)c(=O)cc1[C@@H](NC(C)=O)CC2", "note": "[colchicine]", "values": [
      {"measurement": "viability of HU-2 cells with drug, no conjugate", "setting": "[1]", "result": "remain viable"}
    ]},
    {"compound": "C219-S-S-(37-72)Tat conjugate (Mab C219 linked through PDPH and a disulfide bond to Cys 37 of HIV-1 (37-72)Tat) (antibody)", "values": [
      {"measurement": "cell death of HU-2 cells with Adriamycin 2 µg/ml in the presence of 10 µg conjugate, Trypan blue count after 96 h, normalized to drug without conjugate", "setting": "[2]", "result": 68, "unit": "%"},
      {"measurement": "cell death of HU-2 cells with colchicine 1 µg/ml in the presence of 10 µg conjugate, Trypan blue count after 96 h, normalized to drug without conjugate", "setting": "[2]", "result": 91, "unit": "%"}
    ]},
    {"compound": "CFITKALGISYGRKKRRQRRRPPQGSQTHQVSLSKQ [(37-72)Tat]", "values": [
      {"measurement": "shift in the flow cytometry histogram", "setting": "[3]; 1 μM, 210 min, FIG. 4F", "result": "small"},
      {"measurement": "effect on MDR activity (summary of results)", "setting": "[3]; colchicine-resistant CH(R)B30 cells", "result": "only a marginal effect"}
    ]}
  ]
}
